Data: article PMC7196836, “Molecular analysis of the ribosome recycling factor ABCE1 bound to the 30S post‐splitting complex” (The EMBO Journal, 2020)

Biological target: ribosomal protein uS12 of Thermococcus celer (T. celer (endogenous in T. celer cells), UniProt P29161 1-147)
Assay: cryo-EM structure; post-splitting complex from 1 nmol T. celer 70S split by ABCE1^IIEA (8 uM), aPelota and aRF1 (5 uM each), 0.5 mM AMP-PNP, 50 mM HEPES-KOH pH 7.5, 30 mM KCl, 10 mM MgCl2, 2 mM DTT, 65 °C 15 min; cross-linked with 1% formaldehyde; 30S fractions of a 10-30% sucrose gradient
Details: both partners purified

B1: ABCE1^IIEA (E238A/E485A), hydrolysis-deficient ABCE1 from Saccharolobus solfataricus (enzyme)
chain: MRVAVINYDFCKPDKCNLECINFCPVDRSGGKAIELSEIVKGKPVIYEETCIGCGICVKKCPYEAISIVNLPDELEGEVIHRYKVNGFKLFGLPTPKNNTILGVLGKNGVGKTTVLKILAGEIIPNFGDPNSKVGKDEVLKRFRGKEIYNYFKELYSNELKIVHKIQYVEYASKFLKGTVNEILTKIDERGKKDEVKELLNMTNLWNKDANILSGGGLQRLLVAASLLREADVYIFDAPSSYLDVRERMNMAKAIRELLKNKYVIVVDHDLIVLDYLTDLIHIIYGESSVYGRVSKSYAARVGINNFLKGYLPAENMKIRPDEIKFMLKEVSDLDLSKDLKTKMKWTKIIKKLGDFQLVVDNGEAKEGEIIGILGPNGIGKTTFARILVGEITADEGSVTPEKQILSYKPQRIFPNYDGTVQQYLENASKDALSTSSWFFEEVTKRLNLHRLLESNVNDLSGGELQKLYIAATLAKEADLYVLDAPSSYLDVEERYIVAKAIKRVTRERKAVTFIIDHDLSIHDYIADRIIVFKGEPEKAGLATSPVTLKTGMNEFLRELEVTFRRDAETGRPRVNKIGSYLDRVQKERGDYYS
notes: ABCE1, ABC-type twin-ATPase, Saccharolobus solfataricus; both catalytic glutamates changed to alanine; Carries iron-sulfur clusters (FeSD); also called ABCE1 E238A/E485A; source: E. coli, recombinant (pSA4 plasmid), purified
B1: binds.
